Laboratory results taken from patent US11793905B2, “Dressing” (University of Birmingham, priority 2015, dated 2023).

Tested on: MFs
Assay: Sirius red assay of collagen deposition from MFs under decorin-containing gellan membranes
Assay type: cell-based
Settings: MFs with TGF-β1 added to produce excess collagen; 12 day period; Sirius red dye read at 550 nm; compared to non-treated samples
Protocol: FIG. 4—MFs were cultured in 6-well plates and left to attach overnight. After overnight attachment TGF-β1 was added to the cells to produces excess collagen. Decorin containing membranes were placed on top of the cultures and collagen production was observed using the Sirius Red assay over time.
FIG. 5: For quantifying the amount of Sirius red dye bound to collagen in the cultures the Sirius red was dissolved with 0.1N sodium hydroxide and left on a shaker for 30 min at room temperature. The dissolved dye was measured colourimetrically using a plate reader at 550 nm

B1: decorin (protein, UniProt P07585 31-359, looked up)
Decorin: DEASGIGPEVPDDRDFEPSLGPVCPFRCQCHLRVVQCSDLGLDKVPKDLPPDTTLLDLQNNKITEIKDGDFKNLKNLHALILVNNKISKVSPGAFTPLVKLERLYLSKNQLKELPEKMPKTLQELRAHENEITKVRKVTFNGLNQMIVIELGTNPLKSSGIENGAFQGMKKLSYIRIADTNITSIPQGLPPSLTELHLDGNKISRVDAASLKGLNNLAKLGLSFNSISAVDNGSLANTPHLRELHLDNNKLTRVPGGLAEHKYIQVVYLHNNNISVVGSSDFCPPGHNTKKASYSGVSLFSNPVQYWEIQPSTFRCVYVRSAIQLGNYK
notes: secreted 45 kDA proteoglycan with a core protein comprising primarily leucine-rich repeats; antifibrotic agent
amount of collagen deposited: significantly reduces the amount of collagen deposited
